Assay results taken from US20210268016A1 (YALE UNIVERSITY, published 2021).

Molecular target: biotinylated Aβ1-42 oligomers (Aßo) prepared from biotinylated synthetic Aβ1-42 peptide (human)
Test: biolayer interferometry, biotinylated Aßo on streptavidin sensor

B1: recombinant full-length human PrP^C (AA23-231) (receptor)
chain: not shown
B1: binds.
